Source: patent US20090191208A1 (INOTEK PHARMACEUTICALS, published 2009)

Key:
[1] = target: T1, recombinant SM flagellin protein (a/a 1-156) (Salmonella muenchen, UniProt P06177 1-156); test: ELISA of hybridoma supernatants for anti-SM flagellin reactivity
T1 construct: The antigen is amino acids 1-156 of S. muenchen flagellin, expressed in E. coli from pET 30C behind the His tag; also called recombinant S. muenchen flagellin; fusion protein; not shown: N-terminal His tag and vector-encoded residues of pET 30C
T1 sequence: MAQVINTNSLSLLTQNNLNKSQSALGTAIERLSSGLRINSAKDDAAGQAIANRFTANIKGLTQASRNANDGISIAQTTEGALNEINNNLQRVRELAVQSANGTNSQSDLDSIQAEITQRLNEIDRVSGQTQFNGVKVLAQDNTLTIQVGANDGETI

[2] = target: T2, Pseudomonas flagellin (Pseudomonas, UniProt P21184 2-394); test: BIACore (SPR); Pseudomonas flagellin
T2 chain: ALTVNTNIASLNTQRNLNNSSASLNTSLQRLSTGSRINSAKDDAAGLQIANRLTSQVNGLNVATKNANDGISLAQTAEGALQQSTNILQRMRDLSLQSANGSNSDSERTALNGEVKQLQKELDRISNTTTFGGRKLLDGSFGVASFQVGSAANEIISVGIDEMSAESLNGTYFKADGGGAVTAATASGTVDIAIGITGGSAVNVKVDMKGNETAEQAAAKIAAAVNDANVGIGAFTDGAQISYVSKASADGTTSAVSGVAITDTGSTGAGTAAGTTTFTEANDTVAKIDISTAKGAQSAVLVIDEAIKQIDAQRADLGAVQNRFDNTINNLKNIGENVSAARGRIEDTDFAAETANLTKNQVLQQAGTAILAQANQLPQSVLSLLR

[3] = target: T3, Salmonella flagellin (Salmonella, UniProt P06177 2-505, limits assumed); test: BIACore (SPR); Salmonella flagellin
T3 sequence: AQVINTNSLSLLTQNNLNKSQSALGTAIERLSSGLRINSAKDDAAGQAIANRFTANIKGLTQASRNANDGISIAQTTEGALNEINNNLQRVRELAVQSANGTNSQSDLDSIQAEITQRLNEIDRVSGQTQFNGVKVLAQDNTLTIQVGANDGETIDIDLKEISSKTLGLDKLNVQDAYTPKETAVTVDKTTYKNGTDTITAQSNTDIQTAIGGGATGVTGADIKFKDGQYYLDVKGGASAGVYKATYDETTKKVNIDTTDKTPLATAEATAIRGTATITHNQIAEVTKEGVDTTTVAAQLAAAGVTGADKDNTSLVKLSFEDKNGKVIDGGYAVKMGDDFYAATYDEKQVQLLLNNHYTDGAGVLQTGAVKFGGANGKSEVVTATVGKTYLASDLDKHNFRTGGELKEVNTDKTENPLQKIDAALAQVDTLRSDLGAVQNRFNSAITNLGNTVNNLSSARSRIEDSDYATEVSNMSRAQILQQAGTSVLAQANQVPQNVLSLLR

[4] = target: T4, Salmonella muenchen Flagellin (supplied by Inotek) (Salmonella muenchen, UniProt P06177 2-505); test: competition ELISA on plate-coated S. muenchen flagellin; competitor biotinylated mAb 741 at 0.6 µg/ml; mouse control antibody
T4 sequence: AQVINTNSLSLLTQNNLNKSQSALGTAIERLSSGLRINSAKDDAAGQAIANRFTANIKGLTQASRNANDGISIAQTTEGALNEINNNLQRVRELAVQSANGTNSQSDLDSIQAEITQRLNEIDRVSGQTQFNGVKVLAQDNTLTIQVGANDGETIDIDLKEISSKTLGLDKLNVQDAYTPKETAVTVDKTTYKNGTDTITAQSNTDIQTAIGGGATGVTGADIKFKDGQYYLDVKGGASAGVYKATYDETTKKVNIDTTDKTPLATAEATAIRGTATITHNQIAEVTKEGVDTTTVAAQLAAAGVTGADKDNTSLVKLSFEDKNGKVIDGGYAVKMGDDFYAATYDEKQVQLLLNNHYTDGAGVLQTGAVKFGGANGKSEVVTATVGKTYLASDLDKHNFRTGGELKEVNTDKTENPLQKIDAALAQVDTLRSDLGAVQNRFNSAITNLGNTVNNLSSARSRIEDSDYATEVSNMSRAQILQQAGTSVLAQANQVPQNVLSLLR

Row | Binder | binding result [1] | Kd [2] | Kd [3] | IC50 [4]
1 | human mAb 763 (antibody, V domains shown) VH: EVQLLESGGALVQPGGSLRLSCAASGFTFSSYAMSWARQAPGKGLEWLSGISGSADNTYYAESVKGRFTTSRDNSMNMLYLQMNSLRDEDTAFYYCAKGDQDRGPLEFWGQGTLVTVSS VL: SYELTQPPSVSVSPGQTARITCSGDALPKQYAYWYQQKPGQAPVLLIYQDTKRPSGIPERFSGSSSGTTVALTISGVQAEDEADYYCQSADSNDSYYVFGTGTKVTVL | binds | ~1000 nM | ~0.1 nM | –
2 | murine mAb 741 (antibody, V domains shown, also called mouse control antibody) VH: QVQLQQSGAELVGPGASVTLSCKASGHTFTDYEMHWVKQTPVHGLEWIGGIDPETGGTAYNQKLKGEATLTADKSSNTAYMELRSLTSEDSAVYYCTIYLDYWGRGTTLTVSS VL: QIVLTQSPAIMSASPGEKVTMTCSANSSINYMHWYQQKPGTSPKRWIYDTTILASGVPARFSGSGSGTSYSLTISSMEAEDAATYYCHQRSSYPFTFGSGTKLEIK | – | – | – | 1.9 µg/mL
